This data set has as its target T1, rLiH2A (histone H2A) (Leishmania infantum, UniProt Q9BJC8 1-132).
T1 sequence: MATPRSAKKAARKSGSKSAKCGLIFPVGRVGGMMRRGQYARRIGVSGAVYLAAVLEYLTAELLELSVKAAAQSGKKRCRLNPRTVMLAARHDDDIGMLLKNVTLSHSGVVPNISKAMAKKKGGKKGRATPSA
Put plainly: ELONA. Conditions: protein: recombinant; tags: His (Ni-NTA purified).

B1: AptLiH2A#1 (structured_DNA)
DNA: GCGGATGAAGACTGGTGTTGTGCAATGATTTTTCCGGTTGACCAGGTAGGAATTGTAGGCCCTAAATACGAGCAAC
On to B1, for which the Kd is 0.96 ± 0.17 nM.

B2: AptLiH2A#2 (structured_DNA)
DNA: GCGGATGAAGACTGGTGTGGAGTCTACCCTGTTTTCTAGTCTGCCATCCCTATCCCATGCCCTAAATACGAGCAAC
On to B2, for which the Kd is 1.16 ± 0.28 nM.

As usually defined, the Kd is the equilibrium constant for the complex coming apart.
